# Measurements: patent publication US20220143148A1, “COMPOSITIONS AND METHODS FOR MODULATING CGRP SIGNALING TO REGULATE INTESTINAL INNATE LYMPHOID CELLS” (The Broad Institute, Inc., priority 2019, published 2022)
# B1: OVA (protein, UniProt P01012 2-386, looked up)
# Ovalbumin: GSIGAASMEFCFDVFKELKVHHANENIFYCPIAIMSALAMVYLGAKDSTRTQINKVVRFDKLPGFGDSIEAQCGTSVNVHSSLRDILNQITKPNDVYSFSLASRLYAEERYPILPEYLQCVKELYRGGLEPINFQTAADQARELINSWVESQTNGIIRNVLQPSSVDSQTAMVLVNAIVFKGLWEKAFKDEDTQAMPFRVTEQESKPVQMMYQIGLFRVASMASEKMKILELPFASGTMSMLVLLPDEVSGLEQLESIINFEKLTEWTSSNVMEERKIKVYLPRMKMEEKYNLTSVLMAMGITDVFSSSANLSGISSAESLKISQAVHAAHAEINEAGREVVGSAEAGVDAASVSEEFRADHPFLFCIKHIATNAVLFFGRCVSP
# Test system: small intestinal immune cells
# Experiment: Droplet-based scRNA-seq of small intestinal immune cells (LP and PP), OVA vs PBS, clustering and differential expression
# Assay type: in vivo, mouse
# Conditions: PP, cluster ID 6
# From the text: To comprehensively characterize small intestinal immune cells, Applicants generated scRNA-Seq profiles for 58,067 immune cells collected from lamina propria (LP) and Peyer's patch (PP) regions at steady state and after induction of a type 2 inflammatory reaction to ovalbumin (OVA) (Brandt et al., 2003) (FIGS. 1A and 8A). To ensure sufficient representation of rare cells, Applicants combined a normalization strategy—removing by flow sorting either a portion of IgD+ naïve B cells, which are the most abundant cell type in PPs, or all CD19+ and CD3+ T cells (FIG. 8B, Methods)—with profiling of a sufficiently large number of cells number (P>0.99 to recover at least 15 cells from each cluster, Methods) by massively parallel scRNA-seq (Haber et al., 2017) (Methods). Applicants obtained 36,797 and 21,270 high quality cells passing initial filtering (Methods) from PP and LP regions, respectively.
# Overall, Applicants annotated 27 cell subsets across the two compartments, spanning T cells, B cells, ILCs, dendritic cells (DCs), myeloid cells and stromal cells, in frequencies ranging from 0.07% to 14%. Briefly, Applicants first partitioned the cells from the PP regions by unsupervised clustering (Methods) into 46 clusters, retained the 97% of cells that were robustly assigned cell identities in each cluster (Methods), assigned the cells from the LP regions to the 46 clusters using a classifier (Methods), and visualized the data with scvis (Ding et al., 2018), a deep generative model-based method (FIGS. 1B and 8C, Methods). Next, Applicants identified genes that were differentially expressed between the cells in each cluster and the remaining cells (Table 1, Methods), as well as between pairs of clusters (Table 2), to elucidate identities of similar cell types/states. Applicants excluded from downstream analysis clusters mostly consisting of contaminants from epithelium, likely doublets, or cells with a small number of Unique Molecular Identifiers (UMIs) (FIGS. 1C and 8D), or lacking distinct markers (Methods). Altogether, Applicants retained 27 clusters spanning 85% of the cells and each associated with distinct marker genes (FIG. 8E, Methods).
# To induce allergic reaction to OVA, 6 to 7 weeks old mice were sensitized twice, two weeks apart, with 50 μg of OVA plus 1 mg of aluminum potassium sulfate adjuvant via intraperitoneal injection. Two weeks later, mice were orally administered with 50 mg of OVA on every other day for a total of five times. 1 μg of α-CGRP peptide was administered simultaneously when indicated. Mice were deprived of food for 3-4 hours in cages with wood chip bedding for limiting antigen degradation in the stomach before each intragastric challenge.
# Isolation of cells from Peyer's patches (PPs). Peyer's patches (PPs) were carefully dissected from the small intestine under a stereo microscope using a fine scissor, pierced once with a fine forcep. Tissues were digested in freshly made digestion buffer (RPMI-1640 containing 100 μg/ml Liberase™ and 50 μg/ml DNase I at 37° C. on a roto-mixer. After 15 min, tissues were very gently mixed using a 1 ml pipette. The supernatant was collected and added to ice-cold MACS buffer (pH 7.4; PBS plus 2% FCS and 2 mM EDTA). Pre-warmed (37° C.) fresh digestion buffer was added to the remaining tissues. After rotation at 37° C. for 15 min, the mixture was vigorously mixed using a 1 ml pipette for 1 min. Supernatants from the two steps were combined and passed through 70 μm filters and stained for FACS (below).
# Isolation of cells from the lamina propria (LP). The small intestines were opened longitudinally and washed in ice-cold PBS. For scRNA-seq, roughly 0.5 cm of fragments from each of the distal, middle and proximal regions without visible PPs were collected. Epithelial cells were dissociated by tissue rotation in pre-warmed (37° C.) PBS containing 10 mM EDTA at 37° C. for 15 min, followed by additional incubation on ice for 15 min. Tissues were then shaken vigorously. […]
molecule,measurement,setting,value
B1,5730508B09Rik percentage of expressing cells in OVA-treated group,,0.268
same,Ablim1 percentage of expressing cells in OVA-treated group,,0.403
same,Arid3a percentage of expressing cells in OVA-treated group,,0.212
same,Arl4a percentage of expressing cells in OVA-treated group,,0.228
same,Asph percentage of expressing cells in OVA-treated group,,0.377
same,Cdkn2d percentage of expressing cells in OVA-treated group,,0.747
same,Cfp percentage of expressing cells in OVA-treated group,,0.422
same,Ctsz percentage of expressing cells in OVA-treated group,,0.97
same,Fcer1g percentage of expressing cells in OVA-treated group,,0.94
same,Gadd45b percentage of expressing cells in OVA-treated group,,0.342
same,Gatad1 percentage of expressing cells in OVA-treated group,,0.34
same,Gnai2 percentage of expressing cells in OVA-treated group,,0.932
same,Grb2 percentage of expressing cells in OVA-treated group,,0.614
same,H2-DMa percentage of expressing cells in OVA-treated group,,0.878
same,Hnrnpa3 percentage of expressing cells in OVA-treated group,,0.851
same,Irf4 percentage of expressing cells in OVA-treated group,,0.256
same,Itgb7 percentage of expressing cells in OVA-treated group,,0.669
same,Klf3 percentage of expressing cells in OVA-treated group,,0.125
same,Klk1b27 percentage of expressing cells in OVA-treated group,,0.974
same,Lifr percentage of expressing cells in OVA-treated group,,0.595
same,Map3k1 percentage of expressing cells in OVA-treated group,,0.346
same,Mark3 percentage of expressing cells in OVA-treated group,,0.139
same,Net1 percentage of expressing cells in OVA-treated group,,0.53
same,Orai1 percentage of expressing cells in OVA-treated group,,0.274
same,Paqr5 percentage of expressing cells in OVA-treated group,,0.52
same,Pde4b percentage of expressing cells in OVA-treated group,,0.177
same,Pdia3 percentage of expressing cells in OVA-treated group,,0.844
same,Pink1 percentage of expressing cells in OVA-treated group,,0.282
same,Pten percentage of expressing cells in OVA-treated group,,0.429
same,Ptprcap percentage of expressing cells in OVA-treated group,,0.941
same,Rab7b percentage of expressing cells in OVA-treated group,,0.223
same,Rsrp1 percentage of expressing cells in OVA-treated group,,0.754
same,Sema4b percentage of expressing cells in OVA-treated group,,0.531
same,Sertad1 percentage of expressing cells in OVA-treated group,,0.12
same,Snrnp70 percentage of expressing cells in OVA-treated group,,0.43
same,Tmem50a percentage of expressing cells in OVA-treated group,,0.854
same,Tmem59 percentage of expressing cells in OVA-treated group,,0.833
same,Tmem86a percentage of expressing cells in OVA-treated group,,0.204
same,Tsix percentage of expressing cells in OVA-treated group,,0.23
same,Txndc5 percentage of expressing cells in OVA-treated group,,0.699
same,5730508B09Rik LN (average fold change),OVA vs PBS,−0.218
same,Ablim1 LN (average fold change),OVA vs PBS,−0.197
same,Arid3a LN (average fold change),OVA vs PBS,−0.329
same,Arl4a LN (average fold change),OVA vs PBS,−0.276
same,Asph LN (average fold change),OVA vs PBS,−0.195
same,Cdkn2d LN (average fold change),OVA vs PBS,0.244
same,Cfp LN (average fold change),OVA vs PBS,0.312
same,Ctsz LN (average fold change),OVA vs PBS,0.156
same,Fcer1g LN (average fold change),OVA vs PBS,0.160
same,Gadd45b LN (average fold change),OVA vs PBS,−0.220
same,Gatad1 LN (average fold change),OVA vs PBS,−0.199
same,Gnai2 LN (average fold change),OVA vs PBS,−0.175
same,Grb2 LN (average fold change),OVA vs PBS,−0.222
same,H2-DMa LN (average fold change),OVA vs PBS,0.190
same,Hnrnpa3 LN (average fold change),OVA vs PBS,0.164
same,Irf4 LN (average fold change),OVA vs PBS,−0.248
same,Itgb7 LN (average fold change),OVA vs PBS,0.238
same,Klf3 LN (average fold change),OVA vs PBS,−0.428
same,Klk1b27 LN (average fold change),OVA vs PBS,0.170
same,Lifr LN (average fold change),OVA vs PBS,0.265
same,Map3k1 LN (average fold change),OVA vs PBS,−0.227
same,Mark3 LN (average fold change),OVA vs PBS,−0.383
same,Net1 LN (average fold change),OVA vs PBS,0.285
same,Orai1 LN (average fold change),OVA vs PBS,−0.245
same,Paqr5 LN (average fold change),OVA vs PBS,0.279
same,Pde4b LN (average fold change),OVA vs PBS,−0.282
same,Pdia3 LN (average fold change),OVA vs PBS,0.157
same,Pink1 LN (average fold change),OVA vs PBS,−0.291
same,Pten LN (average fold change),OVA vs PBS,−0.226
same,Ptprcap LN (average fold change),OVA vs PBS,0.159
same,Rab7b LN (average fold change),OVA vs PBS,−0.285
same,Rsrp1 LN (average fold change),OVA vs PBS,0.195
same,Sema4b LN (average fold change),OVA vs PBS,0.221
same,Sertad1 LN (average fold change),OVA vs PBS,−0.396
